Residue numbers refer to the chain shown, from its start. Names and notes keep the numbering of the source. Values joined by “and” are separate entries in the source; they are usually repeats but may differ in a detail not shown here. Equal values may be shown once.

Here are results for 5 molecules from paper PMC7568657, “SppI Forms a Membrane Protein Complex with SppA and Inhibits Its Protease Activity in Bacillus subtilis” (mSphere, 2020).

For data set [1], the target named is SppI-SPA (B. subtilis) (UniProt O34424). Description: affinity purification with mass spectrometry; tandem affinity purification of SppI-SPA (calmodulin resin, then anti-FLAG resin) from B. subtilis membranes in 10 mM Tris-Cl pH 7.5, 150 mM NaCl, 1% DDM, 4°C; LC-MS/MS; two independent experiments.
Data set [2] concerns the molecule itself. As to the kind of experiment: SEC; gel filtration of affinity-purified proteins on Superdex 200 GL 10/300; apparent sizes against MW markers.

Turning to “SppA (from UniProt O34525 1-335) (enzyme)”, the stoichiometry N (SppA per SppI (by the PAI values)) in data set [1] is 1 and 2.

B1: 6×His-SppA (enzyme, B. subtilis, UniProt O34525 1-335, looked up)
chain: MNAKRWIALVIALGIFGVSIIVSISMSFFESVKGAQTDLTSLTDESQEKTLENGSPSSKIAVLEVSGTIQDNGDSSSLLGADGYNHRTFLKNLERAKDDKTVKGIVLKVNSPGGGVYESAEIHKKLEEIKKETKKPIYVSMGSMAASGGYYISTAADKIFATPETLTGSLGVIMESVNYSKLADKLGISFETIKSGAHKDIMSPSREMTKEEKNIMQSMVDNSYEGFVDVISKGRGMPKAEVKKIADGRVYDGRQAKKLNLVDELGFYDDTITAMKKDHKDLKNASVISYEESFGLGSLFSMGANKMFKSEIDFLNMREILSQSGSPRMMYLYAK
notes: SppA, membrane protease of Bacillus subtilis, amplified from BSB1 chromosomal DNA; Purified alone it gave at least three bands of 32 to 34 kDa (C-terminal domain partly self-cleaved); purified with SppI the major band was about 36 kDa and still held most of the C terminus; source: E. coli ER2566, purified from the cytoplasmic membrane fraction (1% DDM, Ni-NTA, gel filtration); not shown: 6×His, …
For the molecule B1, the “stoichiometry N” value in data set [2] turned out to be 8.

B2: 6×His-SppA^K199A (enzyme, B. subtilis, UniProt O34525 1-335, looked up)
chain: B1 chain with K199A
notes: SppA, membrane protease of Bacillus subtilis, with the active-site mutation K199A; band of about 36 kDa; not shown: 6×His, N-terminal, kept
Consider B2, for which the “stoichiometry N” value in data set [2] was 8.

B3: SppI-FLAG (natural protein, B. subtilis, UniProt O34424 1-164, looked up)
chain: MDATYEELERNDIKGPQEAELLTHAYAGFWVRFWAFLLDWLVIWGLNHLLVSPLFTVLDLPKTSGMFTFSAYSVTTLIVYLAYFALMTKYFRQTLGKMVFGLKVVSVKQDSKLTWSTVIFREVVGRYIDKIWILYIVVAFSPTKQGIHDYIADTTVVHEKLYRK
notes: SppI (formerly YteJ), membrane protein of Bacillus subtilis; not shown: FLAG, C-terminal, kept
Turning to B3, the “stoichiometry N” value in data set [2] amounted to 8.

B4: 6×His-SppI (natural protein, B. subtilis, UniProt O34424 1-164, looked up)
chain: B3 chain
notes: SppI (formerly YteJ), membrane protein of Bacillus subtilis, amplified from BSB1 chromosomal DNA; source: E. coli ER2566, purified from the membrane fraction (1% DDM, Ni-NTA, gel filtration); not shown: 6×His, N-terminal, kept
Turning to B4, the “stoichiometry N” value in data set [2] is 8.
